The nanobody polyreactivity screen of Harvey et al. (2022)

Experiment: yeast display, Sf9 membrane polyspecificity reagent, FACS + sequencing; frameworks hold sequencing errors
In short: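 Galactose induction of a Saccharomyces cerevisiae BJ5465 synthetic nanobody display library ran 36–48 hours. The cells were then stained for 1 hour at 4 °C with 10% biotinylated, detergent-solubilized Sf9 membrane reagent, pulled down on streptavidin microbeads and FACS-sorted into low and high (top ~1%) gates on expression and reagent-binding fluorescence. Labels for polyreactivity follow the gate of origin.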

Which “polyreactivity (PSR sort gate)” value does the source give for “QVQLVESGGGLVQAGGSLRLSCAASGRIFVYNAMGWYRQAPGKERQLVAAIRNDGSTNYADSVKGRFTISRDNAKNTVYLLMNSLKPEDTAVYYCAKSVTGWRGLWYTPRNYYWGQGTQVTVSS” here?
The value was “high polyreactivity”.

Which “polyreactivity (PSR sort gate)” value does the source give for “QVQLVESGGGLVQAGGSLRLSCAASGRIFVYNVMGRYRQAPGKERELVAAISWGTGSTYADSVKGRFTISRDNAKNTVYLQMNSLKPEDTAVYYCAADSFIPPYDHWGQGTQVTVSS” here?
The value was “low polyreactivity”.

For “QVQLVESGGGLVQAGGSLRLSCAASGRIFVYNVMGWYRQAPGKERELVAAISWGTGSTYADSVKGRFTISRDNAKNSVNLQMNSLKPDDTAVYYCAKESTVRRYDYWGLGTQVTVSS”, which “polyreactivity (PSR sort gate)” value is on record?
The value was “low polyreactivity”.

Which “polyreactivity (PSR sort gate)” value does the source give for “QVQLVESGGGLVQAGGSLRLSCAASGRIFVYYAMGWNRQAPGKERELVAAISSSGGSTYYADSVKGRFTISRDNAKNTVYLQMNSLKPEDTAVYYCNAVTSVQARPRNYYYWGQGTQVTVSS” here?
Its value is “high polyreactivity”.

With “QVQLVESGGGLVQAGGSLRLSCAASGRIFVYYAMGWYRQAPGKEREFVAAITDSGGGTYYADSVKGRFTISRDNAKNTVYLQMNSLKPEDTAVYYCAKRFGQYRYPYDYWGQGTQVTVSS” as the sequence, how does the “polyreactivity (PSR sort gate)” value read?
Its value is “high polyreactivity”.

With “QVQLVESGGGLVQAGGSLRLSCAASGRIFVYYAMGWYRQAPGKERELVAAITYSVDSTYYADSVKGRFTISRDNAKNTVYLQMNSLKPEDTAVYYCATDVDLAYGYQYEYWGQGTQVTVSS” as the sequence, how does the “polyreactivity (PSR sort gate)” value read?
Its value is “low polyreactivity”.

With “QVQLVESGGGLVQAGGSLRLSCAASGRIFVYYAMGWYRQAPGKERELVAAITYSVDSTYYADSVKGRFTISRDNAKNTVYLQMNSLKPEDTAVYYCATDVDWAYGYQYEYWGQGTQVTVSS” as the sequence, how does the “polyreactivity (PSR sort gate)” value read?
Its value is “low polyreactivity”.

For “QVQLVESGGGLVQAGGSLRLSCAASGRIFVYYVMGWYRQAPGKERELVASITFRGSRTYYADSVKGRFTISRDNAKNTVYLQMNSLKPEDTAVDYCNADVWASGSRGEGYWGQGTQVTVSS”, which “polyreactivity (PSR sort gate)” value is on record?
The value was “low polyreactivity”.

For “QVQLVESGGGLVQAGGSLRLSCAASGRIFWANAMGWYRQAPGKERELVAAISYSGVSTYYADSVKGRFTISRDNAKNTVYLQMNSLKPEDTAVYFCAADRYRKYYYWGQGTQVTVSS”, which “polyreactivity (PSR sort gate)” value is on record?
The value was “high polyreactivity”.

For “QVQLVESGGGLVQAGGSLRLSCAASGRIFWANAMGWYRQATGKERELVAAITGSGRTYYADSVKGRFTISRDNAKNTVYLQMISLKREDTAVYYCAAVTYYELAQGYGYWGQGTQVTVSS”, which “polyreactivity (PSR sort gate)” value is on record?
The value was “high polyreactivity”.

For “QVQLVESGGGLVQAGGSLRLSCAASGRIFWAYTMGWYRQAPGKERELVAAITGSGGSTYYADSVKGRFTISRDNAKNTVYLQMNSLKPEDTAVYYCAADIGYIRLPRGREYDYWGQGTEVTVSS”, which “polyreactivity (PSR sort gate)” value is on record?
The value was “high polyreactivity”.

With “QVQLVESGGGLVQAGGSLRLSCAASGRIFWDNAMGWYRQAPGKERELVAAISDSVVITYYADSVKGRFTISRDNAKNTVYLQMNSLKPEDTAVYYCAADKRGTVYLSSFWMDYWGQGTQVTVSS” as the sequence, how does the “polyreactivity (PSR sort gate)” value read?
The value was “low polyreactivity”.

Which “polyreactivity (PSR sort gate)” value does the source give for “QVQLVESGGGLVQAGGSLRLSCAASGRIFWDNDMGWYRQAPGKERELVAAISRRGGSTSYADSVKGRFTISRDNAKNTVYLQMYSLKPEDTAVYYCIVRTRWTRVRRYDYWGQGTQVTVSS” here?
Its value is “high polyreactivity”.

For “QVQLVESGGGLVQAGGSLRLSCAASGRIFWDYAMGWYRKAPGKERELVAVITFSGDSTYYADSVKGRFTISRDNAKNTVYLQMNSLKPEDTAVYYCAAARAIRQFWYVATFEYWGQGTQVTVSS”, which “polyreactivity (PSR sort gate)” value is on record?
Its value is “low polyreactivity”.

With “QVQLVESGGGLVQAGGSLRLSCAASGRIFWGYSMGWYRQAPGKERELVAAITSGGRTYYADSVKGRFTISRDNAKNTVYLQMNSLKPEDTAVYYCAAVYVPYYWLGRSRGLDYWGQGTQVTVSS” as the sequence, how does the “polyreactivity (PSR sort gate)” value read?
The value was “high polyreactivity”.

Which “polyreactivity (PSR sort gate)” value does the source give for “QVQLVESGGGLVQAGGSLRLSCAASGRIFWINDMGWSRQAPGKERELVAAIRSIGGSTYYADSVKGRFTISRDNGKNTVYLQMNSLKPEDTAVYYCAAKSSPKVRGRYYYWGQGTQVTVSS” here?
The value was “low polyreactivity”.

For “QVQLVESGGGLVQAGGSLRLSCAASGRIFWNYAMGWYRQAPGKERELVAAITWSGGSTYADSVNGRFTISRDNAKYTVYLQMNSLKPEDTAEYYCAAAYASYKFDYWGQGTQVTVSS”, which “polyreactivity (PSR sort gate)” value is on record?
The value was “low polyreactivity”.

For “QVQLVESGGGLVQAGGSLRLSCAASGRIFWNYAMGWYSQAPGKERELVASINWSGGSTYYADSVKGRFTISRDNAKNTVYLQMNSLKPEDTAVYYCNKDGRVYLDHDYWGQGTQVTVSS”, which “polyreactivity (PSR sort gate)” value is on record?
The value was “low polyreactivity”.

Which “polyreactivity (PSR sort gate)” value does the source give for “QVQLVESGGGLVQAGGSLRLSCAASGRIFWPYAMGWYRQAPGKERELVAVITSGTTTYYADSVKGRFTISRDNAKNTVYLKMNSLKPEDTAVYYCNIFSRARRYFEYDYWGQGTQVTVSS” here?
Its value is “low polyreactivity”.

For “QVQLVESGGGLVQAGGSLRLSCAASGRIFWPYTMGGYRQAPGKETELVAVITYSGGSTYYADSVKGRFTISRDNAKNTVYLQMNSLIPEDTEVYYCNAGIRFYLHAHGYYWGQGTQVTVSS”, which “polyreactivity (PSR sort gate)” value is on record?
The value was “high polyreactivity”.

Which “polyreactivity (PSR sort gate)” value does the source give for “QVQLVESGGGLVQAGGSLRLSCAASGRIFWRNAMGWYRQAPGKERELVAAISSGGSTYYADSVKGRFTISRDNAKNTVYFQMNSLKPEDTAVYYCAARSSWRGVRYDHFERDYWGQGTQVTVSS” here?
The value was “high polyreactivity”.

For “QVQLVESGGGLVQAGGSLRLSCAASGRIFWRNAMVWYRQAPGKERELVAAISGSGGSTSYADSVKGRFTISRDNAKNTVYLQMNSLKPEDTAVYYCAAKYYYNWHRQGYDYWGQGTQVTVSS”, which “polyreactivity (PSR sort gate)” value is on record?
The value was “high polyreactivity”.

With “QVQLVESGGGLVQAGGSLRLSCAASGRIFWRYAMGWYRQAPGKERELVAAISSGGSTTYADSVKGRFTISRDNAKNTVYLQMNSLKPEDTAVYYCNARQYTRPYAFDYWGQGTQVTVSS” as the sequence, how does the “polyreactivity (PSR sort gate)” value read?
The value was “low polyreactivity”.

With “QVQLVESGGGLVQAGGSLRLSCAASGRIFWRYAMGWYRQAPGKERELVAGISASGGSTFYADSVKGRFTISRDNAKNTVYLQMNSLKPEDTAVYYCAAVSRYIWYSARESYYWGQGTQVTVSS” as the sequence, how does the “polyreactivity (PSR sort gate)” value read?
Its value is “high polyreactivity”.

For “QVQLVESGGGLVQAGGSLRLSCAASGRIFWSYAMGWYRQAPGKEREFVAVITWSGGSTYYADSVKGRFTISRDNAKNTVYLQMNSLKPEDTAVYYCADGQWWYQVRFDYWGQGTQVTVSS”, which “polyreactivity (PSR sort gate)” value is on record?
Its value is “low polyreactivity”.

For “QVQLVESGGGLVQAGGSLRLSCAASGRIFWSYAMGWYRQAPGKERELVAAINSGGSTNYADSVKGRFTISRDNAKNTVYLQMNSLKPEDTAVYYCAAGFYYVYVWLGEYWVQGTQVTVSS”, which “polyreactivity (PSR sort gate)” value is on record?
The value was “low polyreactivity”.

For “QVQLVESGGGLVQAGGSLRLSCAASGRIFWTNAMGWYRQAPGKERELVAAISYNGASTFYADSVKGRFTISRDNAKNTVYLQMNSLKPEDTAVYYCNAYSSRYRYNYWGQGTQVTVSS”, which “polyreactivity (PSR sort gate)” value is on record?
Its value is “high polyreactivity”.

With “QVQLVESGGGLVQAGGSLRLSCAASGRIFWTYAMGWYRQAPGKERELVAAINSSGGTTYYADSVKGRFTISRDNAKNTVYLQMNSLKPEDTAVYYCSVRGRYYYRRPQISYDYGGQGTQVTVSS” as the sequence, how does the “polyreactivity (PSR sort gate)” value read?
Its value is “low polyreactivity”.

With “QVQLVESGGGLVQAGGSLRLSCAASGRIFWTYAMGWYRQAPGKERELVASITWSGGSTYYADSVKGRFTISRDNAKNTVYLQMNSLKPEDTAVYYCAADRHTYWYDYWGQGTQVTVSS” as the sequence, how does the “polyreactivity (PSR sort gate)” value read?
The value was “low polyreactivity”.

With “QVQLVESGGGLVQAGGSLRLSCAASGRIFWVNVMGWYRQGPGKERELVAAITRGASTYADSVKGRFTISRDNAKNTVYLQLNSLKPEDTAVYYCAADSKRRSIRYDYWGQGTQVTVSS” as the sequence, how does the “polyreactivity (PSR sort gate)” value read?
The value was “high polyreactivity”.

Which “polyreactivity (PSR sort gate)” value does the source give for “QVQLVESGGGLVQAGGSLRLSCAASGRIFWVYAMGWYRQAPGKERELVAAISLSGGRTYYADSVKGRFTISRDNAKNTVYLEMNSLKPEDTAVYYCNAVYPKRGGGRIVDYWGQGTQVTVSS” here?
Its value is “high polyreactivity”.

For “QVQLVESGGGLVQAGGSLRLSCAASGRIFWWYAMGWYRQAPGKERELVAVIDDSGGITYYADSVKGRFTISRDNAKNTVYLQRNSLKPEDTAVYYCANYYWGQGTQVTVSS”, which “polyreactivity (PSR sort gate)” value is on record?
The value was “low polyreactivity”.

With “QVQLVESGGGLVQAGGSLRLSCAASGRIFWWYTMGWSRQAPGKERELVAAISGSGGSTYYADSVKGRFTISRDNAKNTVYLQMNSLKPEDTAVYYCAAYHRRRATPIHSGEYGYWGQGTQVTVSS” as the sequence, how does the “polyreactivity (PSR sort gate)” value read?
The value was “high polyreactivity”.

Which “polyreactivity (PSR sort gate)” value does the source give for “QVQLVESGGGLVQAGGSLRLSCAASGRIFWYNAMGWYRQAPGKERELVAVITSGTSTYYADSVKGRFTISRDNAKNTVYLQMNSLKPEDTAVYYCAARYLSRYSERHYYYWGQGTQVTVSS” here?
The value was “high polyreactivity”.

With “QVQLVESGGGLVQAGGSLRLSCAASGRIFWYNAMGWYRQAPGKQRELVAAITSGGRTYYADSVKGRFTISRDNAKNTVYLQMNSLKPEDTAVYYCAATYPSYTYDYWGQGTQVTVSS” as the sequence, how does the “polyreactivity (PSR sort gate)” value read?
The value was “low polyreactivity”.

For “QVQLVESGGGLVQAGGSLRLSCAASGRIFWYNGKGWYRQAPGKERELVAAISYSGGSTNYADSVKGRFTISRDNAKNTVYLQMNSLKPEATAVYYCAAPVPTYHTAWRFFRPDYGYWGQGTQVTVSS”, which “polyreactivity (PSR sort gate)” value is on record?
Its value is “high polyreactivity”.

With “QVQLVESGGGLVQAGGSLRLSCAASGRIFWYNTMGWYRQAPGKERELVATITTGGRTNYADSVKGRFTISRDNAKNTVYLQMNSLKPEDTAVYYCNAVRGLWVTWRYYYWGQGTQVTVSS” as the sequence, how does the “polyreactivity (PSR sort gate)” value read?
The value was “high polyreactivity”.

For “QVQLVESGGGLVQAGGSLRLSCAASGRIFWYYAMGWYRQAPGKERELVASIRWGGGNTYYADSVKGRFTISRDNAKNTVYLQMNSLKPEDTAVYYCAKSKVSPSGDFYYWGQGTQVTVSS”, which “polyreactivity (PSR sort gate)” value is on record?
The value was “high polyreactivity”.

With “QVQLVESGGGLVQAGGSLRLSCAASGRIFWYYVMGWYRQAPGKEREFVASISSGGSTYYADSVKGRFTISRDNAKNTVYLQMNSLKPEDTAVYYCNAYVYGQRVWYDYWGQGTQVTVSS” as the sequence, how does the “polyreactivity (PSR sort gate)” value read?
Its value is “high polyreactivity”.

For “QVQLVESGGGLVQAGGSLRLSCAASGRIFYANAMGWYRQAPGKERELVAAISSGGSTYYADSVKGRFTISRDNAKNTVYLQMNSLKPEDTAVYYCAKDTGSRTDSWTVWHDYWGQGTQVTVSS”, which “polyreactivity (PSR sort gate)” value is on record?
Its value is “low polyreactivity”.

For “QVQLVESGGGLVQAGGSLRLSCAASGRIFYANSMGWYRQAPGKERELVASISARGGYTYYADSVKGRFTISRDTAKNTVYLQMNSLKPEDTAVYYCAAEYLAVSGYWYAYWGQGTQVTVSS”, which “polyreactivity (PSR sort gate)” value is on record?
The value was “high polyreactivity”.

With “QVQLVESGGGLVQAGGSLRLSCAASGRIFYANTMGWYRKATGKERELVAAISSGGSTTYADSVKGRFTISRENAKNTVYLQMNSLKPEDPAVYYCATNTWYHYQRMYYWGQGTQVTVSS” as the sequence, how does the “polyreactivity (PSR sort gate)” value read?
The value was “high polyreactivity”.

For “QVQLVESGGGLVQAGGSLRLSCAASGRIFYAYAMGWYRQAPGKERELVATITGIGGSTYADSVKGRFTISRDNAKNTVYLQMNSLKPEDTAVYYCNAAKWLTSGGLDYWGQGTQVTVSS”, which “polyreactivity (PSR sort gate)” value is on record?
The value was “high polyreactivity”.
